Binding signal data for 40 molecules are collected here from article PMC11417369, “DNA sequence and chromatin differentiate sequence-specific transcription factor binding in the human malaria parasite Plasmodium falciparum”.

First the molecules themselves.
T1: AP2-LT D1 (Plasmodium falciparum, UniProt Q8IAM1 2520-2577)
T1 sequence: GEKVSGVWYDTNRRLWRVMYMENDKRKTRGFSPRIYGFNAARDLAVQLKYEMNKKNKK

T2: AP2-G D1 (Plasmodium falciparum, UniProt Q8I5I9 2123-2245)
T2 sequence: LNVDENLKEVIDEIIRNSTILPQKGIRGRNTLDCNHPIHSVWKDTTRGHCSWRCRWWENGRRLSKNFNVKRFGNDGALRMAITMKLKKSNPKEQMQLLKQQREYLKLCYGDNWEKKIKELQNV

B1: CACACA_site8067 (dsDNA)
DNA 1: AACAAATACAGACACACACACACACTAATAAAAAAA
DNA 2: TTTTTTTATTAGTGTGTGTGTGTGTCTGTATTTGTT
B2: CACACA_site8012 (dsDNA)
DNA 1: ACATCAAGCAGACACACACACACACCCACCCACCCA
DNA 2: TGGGTGGGTGGGTGTGTGTGTGTGTCTGCTTGATGT
B3: CACACA_site3589 (dsDNA)
DNA 1: AATAAAAAGAAACACACACACACACCCATATATATA
DNA 2: TATATATATGGGTGTGTGTGTGTGTTTCTTTTTATT
B4: CACACA_site7645 (dsDNA)
DNA 1: AAAAAAAATACATACACACACACACGCACATATATA
DNA 2: TATATATGTGCGTGTGTGTGTGTATGTATTTTTTTT
B5: CACACA_site5884 (dsDNA)
DNA 1: AATACATACGGACACACACACACATATATATATATA
DNA 2: TATATATATATATGTGTGTGTGTGTCCGTATGTATT
B6: CACACA_site906 (dsDNA)
DNA 1: AAAGGATACAGACACACACACACATATATATATATA
DNA 2: TATATATATATATGTGTGTGTGTGTCTGTATCCTTT
B7: CACACA_site5272 (dsDNA)
DNA 1: TATACAGATGGACACACACACATATATATATATATA
DNA 2: TATATATATATATATGTGTGTGTGTCCATCTGTATA
B8: CACACA_site5252 (dsDNA)
DNA 1: AACACGCGCGGACACACACACACACCCACATATATA
DNA 2: TATATATGTGGGTGTGTGTGTGTGTCCGCGCGTGTT
B9: CACACA_site4355 (dsDNA)
DNA 1: CACAGACACGGACACACACACACACCCACATATATA
DNA 2: TATATATGTGGGTGTGTGTGTGTGTCCGTGTCTGTG
B10: CACACA_site8001 (dsDNA)
DNA 1: TGGGAGCACAGACACACACACACACCGATATATATA
DNA 2: TATATATATCGGTGTGTGTGTGTGTCTGTGCTCCCA
B11: CACACA_site5247 (dsDNA)
DNA 1: AGGATATGCGGACACACACACATATATATATATATA
DNA 2: TATATATATATATATGTGTGTGTGTCCGCATATCCT
B12: CACACA_site2919 (dsDNA)
DNA 1: TACATACAGAAACACACACACACATATATATATATA
DNA 2: TATATATATATATGTGTGTGTGTGTTTCTGTATGTA
B13: CACACA_site3654 (dsDNA)
DNA 1: AAAAAACAAAAACACACACACACATATATATATATA
DNA 2: TATATATATATATGTGTGTGTGTGTTTTTGTTTTTT
B14: CACACA_site5248 (dsDNA)
DNA 1: CACAGACACGGACACACACACATATATATATATATA
DNA 2: TATATATATATATATGTGTGTGTGTCCGTGTCTGTG
B15: CACACA_site4352 (dsDNA)
DNA 1: CCCACAGACGGACACACACACACATATATATATATA
DNA 2: TATATATATATATGTGTGTGTGTGTCCGTCTGTGGG
B16: CACACA_site5894 (dsDNA)
DNA 1: AAAAGGAACGGACACACACACATATATATATATATA
DNA 2: TATATATATATATATGTGTGTGTGTCCGTTCCTTTT
B17: CACACA_site5249 (dsDNA)
DNA 1: CGCACAGACGGACACACACACACATATATATATATA
DNA 2: TATATATATATATGTGTGTGTGTGTCCGTCTGTGCG
B18: CACACA_site3394 (dsDNA)
DNA 1: AACAGACAGAAACACACACACATATATATATATATA
DNA 2: TATATATATATATATGTGTGTGTGTTTCTGTCTGTT
B19: CACACA_site5883 (dsDNA)
DNA 1: TACATACACGGACACACACACATATATATATATATA
DNA 2: TATATATATATATATGTGTGTGTGTCCGTGTATGTA
B20: CACACA_site4488 (dsDNA)
DNA 1: TACAAATATGGACACACACACATATATATATATATA
DNA 2: TATATATATATATATGTGTGTGTGTCCATATTTGTA
B21: CACACA_site8840 (dsDNA)
DNA 1: ATAAATAAAGGACACACACACACACTAATAAAAAAA
DNA 2: TTTTTTTATTAGTGTGTGTGTGTGTCCTTTATTTAT
B22: CACACA_site6446 (dsDNA)
DNA 1: TACACGCATAGACACACACACACACGCATATAAATA
DNA 2: TATTTATATGCGTGTGTGTGTGTGTCTATGCGTGTA
B23: CACACA_site2202 (dsDNA)
DNA 1: CGCACCCACAGACACACACACACATATATATATATA
DNA 2: TATATATATATATGTGTGTGTGTGTCTGTGGGTGCG
B24: CACACA_site3541 (dsDNA)
DNA 1: GGAATAACCAGACACACACACACATATATATATATA
DNA 2: TATATATATATATGTGTGTGTGTGTCTGGTTATTCC
B25: CACACA_site6426 (dsDNA)
DNA 1: GGCATACACGAACACACACACACACGCACATATATA
DNA 2: TATATATGTGCGTGTGTGTGTGTGTTCGTGTATGCC
B26: XGTACX_negctrl_site317 (dsDNA)
DNA 1: TTATATTCTTTTCTCTTTCTACTTTTTTTTTTTTTT
DNA 2: AAAAAAAAAAAAAAGTAGAAAGAGAAAAGAATATAA
B27: XGTACX_negctrl_site604 (dsDNA)
DNA 1: ATAAATCGATAAAATATATGCTACATGAATAAATAA
DNA 2: TTATTTATTCATGTAGCATATATTTTATCGATTTAT
B28: XGTACX_negctrl_site591 (dsDNA)
DNA 1: TTTTTATATAACCTTCTTAATTCTTTTTTTTTTTTT
DNA 2: AAAAAAAAAAAAAGAATTAAGAAGGTTATATAAAAA
B29: XGTACX_negctrl_site191 (dsDNA)
DNA 1: TTTTTAAAAAATAAGAAAAAATAAATATATTACAAA
DNA 2: TTTGTAATATATTTATTTTTTCTTATTTTTTAAAAA
B30: XGTACX_negctrl_site521 (dsDNA)
DNA 1: ATGTTATAAATCTTAATATATATATGCAAAAGAGAA
DNA 2: TTCTCTTTTGCATATATATATTAAGATTTATAACAT
B31: XGTACX_negctrl_site385 (dsDNA)
DNA 1: TACTTCTCATTTGTTGTTGTATTTTAGGCATACCCT
DNA 2: AGGGTATGCCTAAAATACAACAACAAATGAGAAGTA
B32: XGTACX_negctrl_site451 (dsDNA)
DNA 1: AACAAATAAAAAAAAATAAAAATAAAAATAAAAAAA
DNA 2: TTTTTTTATTTTTATTTTTATTTTTTTTTATTTGTT
B33: XGTACX_negctrl_site343 (dsDNA)
DNA 1: AATAAATAAAAAAAAAAAAAAAAAAAAAAAAAAAAA
DNA 2: TTTTTTTTTTTTTTTTTTTTTTTTTTTTTATTTATT
B34: XGTACX_negctrl_site59 (dsDNA)
DNA 1: AATATTACGTGTTTGGTATTTTTCGATGTTGGCAGG
DNA 2: CCTGCCAACATCGAAAAATACCAAACACGTAATATT
B35: XGTACX_negctrl_site493 (dsDNA)
DNA 1: CATATATAAATATAAATATATATATATATATATATG
DNA 2: CATATATATATATATATATATTTATATTTATATATG
B36: XGTACX_negctrl_site394 (dsDNA)
DNA 1: AGGTGAAAAATATATAATAATGTAACAAAAAAAAAT
DNA 2: ATTTTTTTTTGTTACATTATTATATATTTTTCACCT
B37: XGTACX_negctrl_site369 (dsDNA)
DNA 1: TTTTTTTTTAATAAAATTATAATAAATATGAAATTA
DNA 2: TAATTTCATATTTATTATAATTTTATTAAAAAAAAA
B38: XGTACX_negctrl_site291 (dsDNA)
DNA 1: TTTTTTATATTTAAACTTCACATGGTTTTCATTTAT
DNA 2: ATAAATGAAAACCATGTGAAGTTTAAATATAAAAAA
B39: XGTACX_negctrl_site580 (dsDNA)
DNA 1: ATACAAATTAAGCCTCAAGTTCTTTTTTTTAACATA
DNA 2: TATGTTAAAAAAAAGAACTTGAGGCTTAATTTGTAT
B40: XGTACX_negctrl_site541 (dsDNA)
DNA 1: TTGTCAAAAATTACACACATAAATGAATAAATAAAT
DNA 2: ATTTATTTATTCATTTATGTGTGTAATTTTTGACAA

The first data set addresses T1, AP2-LT D1. Kind of data set: gcPBM; about 25 ug protein; PBS, 1% milk, 0.2 mg/ml BSA, salmon testes DNA, 0.03% Triton X-100. The following applies: tags: N-terminal GST (pGEX-4T-1), kept; label: surface-attached array probe.
For B1, the binding signal is 10.8 ln median PBM intensity, better of two orientations. On the same count and under the same terms, next, B2: 10.8 ln median PBM intensity, better of two orientations. On to B3, for which the binding signal is 10.7 ln median PBM intensity, better of two orientations. Turning to B4, the binding signal was 10.7 ln median PBM intensity, better of two orientations. Consider B5, for which the binding signal was 10.7 ln median PBM intensity, better of two orientations.

B6: the binding signal is 10.7 ln median PBM intensity, better of two orientations. Take B7: the binding signal was 10.7 ln median PBM intensity, better of two orientations. Still for that read-out and setting: to B8 belongs 10.7 ln median PBM intensity, better of two orientations.

As for B9, the binding signal was 10.7 ln median PBM intensity, better of two orientations. Regarding B10, the binding signal was 10.6 ln median PBM intensity, better of two orientations.

For the molecule B11, the binding signal was 10.7 ln median PBM intensity, better of two orientations. Same read-out and setting: to B12 belongs 10.8 ln median PBM intensity, better of two orientations.

In the case of B13, the binding signal is 10.7 ln median PBM intensity, better of two orientations.

With B14, the binding signal was 10.9 ln median PBM intensity, better of two orientations.

With B15, the binding signal is 10.6 ln median PBM intensity, better of two orientations.

With B16, the binding signal was 10.7 ln median PBM intensity, better of two orientations. On to B17, for which the binding signal was 10.7 ln median PBM intensity, better of two orientations.

For the molecule B18, the binding signal is 10.7 ln median PBM intensity, better of two orientations. As for B19, the binding signal was 10.8 ln median PBM intensity, better of two orientations. Still for that read-out and setting: next, B20: 10.7 ln median PBM intensity, better of two orientations; B21: 10.7 ln median PBM intensity, better of two orientations; B22: 10.7 ln median PBM intensity, better of two orientations. On the same count and under the same terms, to B23 belongs 10.8 ln median PBM intensity, better of two orientations; to B24, 10.7 ln median PBM intensity, better of two orientations; to B25, 10.7 ln median PBM intensity, better of two orientations.

The next data set concerns the target T2, AP2-G D1. Described as above. The following applies: tags: N-terminal GST (pGEX-4T-1), kept; label: surface-attached array probe.
As for B26, the binding signal was 9.85 ln median PBM intensity, better of two orientations. Consider B27, for which the binding signal was 9.88 ln median PBM intensity, better of two orientations. With B28, the binding signal is 9.85 ln median PBM intensity, better of two orientations. Same read-out and setting: to B29 belongs 9.86 ln median PBM intensity, better of two orientations. Same read-out and setting: to B30 belongs 9.88 ln median PBM intensity, better of two orientations. Still for that read-out and setting: to B31 belongs 9.85 ln median PBM intensity, better of two orientations; to B32, 9.85 ln median PBM intensity, better of two orientations; to B33, 9.85 ln median PBM intensity, better of two orientations.

B34: the binding signal was 9.87 ln median PBM intensity, better of two orientations. Same read-out and setting: to B35 belongs 9.85 ln median PBM intensity, better of two orientations; to B36, 9.88 ln median PBM intensity, better of two orientations; to B37, 9.84 ln median PBM intensity, better of two orientations. Same read-out and setting: to B38 belongs 9.85 ln median PBM intensity, better of two orientations; to B39, 9.88 ln median PBM intensity, better of two orientations; to B40, 9.88 ln median PBM intensity, better of two orientations.
